Source: patent US20070184522A1, “Cell death modulation via antagonists of Fasl and Fas activation” (University of Pittsburgh of the Commonwealth System of …, priority 2004, published 2007)

Tests used:
[1] = biological target: T1, Fas-Fc / Fas ligand binding (Mus musculus, UniProt P25446); test: Competition ELISA: coated Fas ligand, Fas-Fc added with increasing amounts of polypeptide; details: Fas ligand 1 μg/ml coated, Fas-Fc 1 μg/ml
T1 construct: purchased R&D
T1 sequence (P25446 22-169 limits assumed): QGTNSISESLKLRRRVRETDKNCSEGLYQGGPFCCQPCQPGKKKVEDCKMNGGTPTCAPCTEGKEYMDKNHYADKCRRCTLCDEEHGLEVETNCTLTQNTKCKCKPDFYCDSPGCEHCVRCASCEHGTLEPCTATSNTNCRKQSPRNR
Method: This antibody also recognizes Fas-Fc which is also tagged at the C-terminus by His. In FIG. 2b, a fixed amount of purified recombinant Fas-ligand was added to Fas-Fc in the absence or presence of increasing amounts of AlphaMet as indicated. Samples were subjected to pull down using proteinA agarose followed by Western blot using a polyclonal rabbit anti-FasL antibody. […] Fas ligand (1 μg/ml) was coated in the wells of a microtiter plate (triplicate wells) then 1 μg/ml of Fas-Fc was added in the absence or presence of an increasing amount of the indicated polypeptide. A 13 mer YLGA polypeptide derived from FasL also was synthesized and used. The control peptide was a scrambled 13 mer. Anti human IgM-HRP conjugates were used to detect the bound Fas-Fc. […] One-way ANOVA was carried out for determination of statistical significance. […] Cells (3×10^5) were plated in 24-well plates having Poly-L-Lysine pre-treated cover glass. 2 μg/ml of Fas ligand was added and the cells were incubated for 30 min on ice. Cells were then washed by PBS twice, and were subjected to immunostaining using anti-Fas ligand antibody and fluorescent microscopy. In Frame A, Fas ligand was not added, in B, only Fas ligand was added, in C-F, Fas ligand was added with different polypeptides as follows: AlphaMet, 12 mer YLGA, control peptide, and YLGA mutated AlphaMet, respectively.
(§1) ELISA. Synthesized polypeptides (Genemed Synthesis, Inc. South San Francisco, Calif.) were dissolved in water and diluted in the coating buffer (0.05M of Sodium Carbonate, 0.02% of Sodium Azide, pH 9.6) to a final concentration of 1 ug/ml. One hundred microliter aliquots were added to coat each well of a 96-well microtitre plate. The coated plates were then washed with PBS-Tween (0.5%) three times. The plates were blotted and dried by tapping upside down on tissue paper. They were blocked using 200 μl of 1% of BSA in PBS solution followed by a 2 hour incubation. Plates were washed another three times, Fas-Fc was added, and the plates were incubated for another 2 hours. The plates were washed three times and anti-human IgM Fc HRP conjugates were included at a final concentration of 1:20,000, and incubated for 1 hour. Plates were washed three times again and ready-to-use TMD was added and incubated for 30 minutes. The color reaction was stopped by 2M of Sulfuric Acid. Plates were applied to color read at a wave length of 450 nm.

Fas-Fc = biological target: T2, Fas-Fc (Mus musculus, UniProt P25446); test: ELISA of Fas-Fc binding to coated synthetic polypeptides; details: peptides coated at 1 μg/ml, increasing Fas-Fc, OD 450 nm
T2 construct: purchased R&D
T2 sequence (P25446 22-169 limits assumed): T1 sequence (P25446 22-169 limits assumed)
Excerpt: The Met alpha but not beta chain binds to Fas (FIG. 1a). Various regions of the mouse Met cDNA corresponding to the alpha chain or the extra-cellular portion of the Met beta chain were cloned into expression vectors (pCRT7 TOPO/AlphaMet or pCRT7 TOPO/beta chain) and subjected to in vitro transcription/translation by a rabbit reticolucyte lysate translation system. Empty vector was included in each experiment as a control. The expressed proteins were labeled with ^35S-Methionine. Pull down assays were performed using Fas-Fc, a chimeric molecule which lacks the interacellular cytoplasmic domain and protein-A agarose as described in Wang et al., 2002. FIG. 1b is a schematic presentation of the Met alpha chain and its mutant version used to map the region interacting with Fas. The C-terminus of each construct contains a hexa-Histidine tag for ease of detection. Start cordon ATG was added to the N-terminally truncated constructs. The YLGA (SEQ ID NO:1) motif mutation was prepared by PCR, in which YLGA (SEQ ID NO:1) was replaced by DHER (SEQ ID NO:24). […] In vitro translated ^35S-methionine labeled truncated/mutated AlphaMet proteins were pulled down with 2 μg of Fas-Fc or the same amount of IgG. Lane 1: 10% of AlphaMet input; Lane 2: AlphaMet with IgG control; Lanes 3 to 8: pull down of various truncated AlphaMet proteins; N-terminal 1-106 residues; C-terminal truncated, residues 1-210; alpha chain, residues 1-306; alpha chain with transmembrane domain, 1-338; N-terminally truncated alpha chain, residues 100-306; and N-terminally truncated with addition of the transmembrane domain 100-338, respectively. FIG. 1d depicts the amino acid sequence alignment of alpha chain with FasL, determined using the CLUSTALW, SIM+LALNVIEW, and ALIGN at ExPASy Proteomic Tools (available on the internet at us.expresly.org/tools). The numbers indicate the amino acid residues of the indicated protein. […] Recombinant His-tagged AlphaMet or its mutant version were expressed in E. coli, purified with chromatography, and subjected to Fas-Fc (lanes labeled Fas) or control IgG pull down experiments, and detected by Western blot using anti-His antibody that recognizes C-terminal His. This antibody also recognizes the Fas-Fc which is also tagged at the C-terminus by His. […] Purified recombinant AlphaMet protein (approximately 10 μg) was mixed with Hepa 1-6 cells or Jurkat cell lysates and subjected to immunoprecicitation using anti-Fas antibody or control IgG followed by Western blot using anti His-tag antibody as a probe. […] Peptides (1 μg/ml) were coated into the 96-well microtiter plates in triplicate and after blocking with 1% BSA, increasing amounts of Fas-Fc were added as indicated. The control peptide was a scrambled 13 mer. After washing the wells, anti-human […]-HRP conjugates (1:20,000) were added to detect the bound Fas-Fc using TMD dye and the OD value was determined at a wavelength of 450 nm. One-way ANOVA was carried out for determination of statistical significance.
as §1, with “Plates were applied to color read at a wave length of 450 nm.” left out

Substance | inhibition of FasL binding to Fas-Fc (ELISA) [1] | Fas binding by ELISA (Fas-Fc)
YLGA [YLGA 4 mer] | lower, yet significant inhibition | lower compared to the YLGA 12 mer
HHIYLGATNYIY [12 mer] | significantly inhibited FasL binding | bound Fas strongly
